This note sets out measurements from IntAct's records for PubMed 26829474.

B1: Aurora kinase B (Homo sapiens), Q96GD4 (parent)
chain: MAQKENSYPWPYGRQTAPSGLSTLPQRVLRKEPVTPSALVLMSRSNVQPTAAPGQKVMENSSGTPDILTRHFTIDDFEIGRPLGKGKFGNVYLAREKKSHFIVALKVLFKSQIEKEGVEHQLRREIEIQAHLHHPNILRLYNYFYDRRRIYLILEYAPRGELYKELQKSCTFDEQRTATIMEELADALMYCHGKKVIHRDIKPENLLLGLKGELKIADFGWSVHAPSLRRKTMCGTLDYLPPEMIEGRMHNEKVDLWCIGVLCYELLVGNPPFESASHNETYRRIVKVDLKFPASVPMGAQDLISKLLRHNPSERLPLAQVSAHPWVRANSRRVLPPSALQSVA

The variants in the experiment derive from B1. As to conditions: with 2aaa_human PPP2R1A.
On to MAQKENSYPWPYGRQTAPSGLSTLPQRVLRKEPVTPSALVLMSRSNVQPTAAPGQKVMENSSGTPDILTRHFTIDDFEIGRPLGKGKFGNVYLAREKKSHFIVALKVLFKSQIEKEGVEHQLRREIEIQAHLHHPNILRLYNYFYDRRRIYLILEYAPRGELYKELQKSCTFDEQRTATIMEELADALMYCHGKKVIHRDIKPENLLLGLKGELQIADFGWSVHAPSLRRKTMCGTLDYLPPEMIEGRMHNEKVDLWCIGVLCYELLVGNPPFESASHNETYRRIVKVDLKFPASVPMGAQDLISKLLRHNPSERLPLAQVSAHPWVRANSRRVLPPSALQSVA [K215Q], for which the “effect of a mutation on the interaction” value is “decreasing interaction strength”.
